The values below come from patent US20250163140A1.

This test addresses Recombinant Human FGF-23 (R&D Systems, Cat No. 2604-FG-025/CF) (human) (UniProt Q9GZV9). The test is described as follows: cell-based or functional assay.

Residue numbers refer to the chain shown, from its start.

Recombinant Human FGF-23 (R&D Systems, Cat No. 2604-FG-025/CF) (human), sequence (Q9GZV9 25-251 limits assumed): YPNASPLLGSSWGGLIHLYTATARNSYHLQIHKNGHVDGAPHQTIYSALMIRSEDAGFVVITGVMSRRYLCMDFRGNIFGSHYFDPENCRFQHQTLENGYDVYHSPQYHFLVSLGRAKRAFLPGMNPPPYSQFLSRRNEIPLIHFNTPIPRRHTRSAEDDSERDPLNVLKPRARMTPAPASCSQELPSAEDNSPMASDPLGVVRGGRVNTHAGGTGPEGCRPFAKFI

B1: antibody D105N_G2_YTE (antibody)
heavy: QVQLVQSGAEVKKPGASVKVSCKASGYTFTNHYMHWVRQAPGQGLEWMGIINPISGSTSNAQKFQGRVTMTRDTSTSTVYMELSSLRSEDTAVYYCARDIVDAFNFWGQGTMVTVSSASTKGPSVFPLAPCSRSTSESTAALGCLVKDYFPEPVTVSWNSGALTSGVHTFPAVLQSSGLYSLSSVVTVPSSNFGTQTYTCNVDHKPSNTKVDKTVERKCCVECPPCPAPPVAGPSVFLFPPKPKDTLYITREPEVTCVVVDVSHEDPEVQFNWYVDGVEVHNAKTKPREEQFNSTFRVVSVLTVVHQDWLNGKEYKCKVSNKGLPAPIEKTISKTKGQPREPQVYTLPPSREEMTKNQVSLTCLVKGFYPSDIAVEWESNGQPENNYKTTPPMLDSDGSFFLYSKLTVDKSRWQQGNVFSCSVMHEALHNHYTQKSLSLSPGK
light: AIQLTQSPSSLSASVGDRVTITCRASQGISSALVWYQQKPGKAPKLLIYDASSLESGVPSRFSGSGSGTDFTLTISSLQPEDFATYYCQQFNDYFTFGPGTKVDIK
Regarding B1, the FGF23 neutralizing activity IC50 (luciferase promoter assay) was 12.4 ng/mL.

B2: antibody D105N_G2_LS (antibody)
heavy: B1 heavy with Y248M, T250S, E252T, M424L, N430S
light: B1 light
For B2, the FGF23 neutralizing activity IC50 (luciferase promoter assay) came to 12.4 ng/mL.

B3: antibody I100A_IgG4PE_R409K_LS (antibody)
heavy: QVQLVQSGAEVKKPGASVKVSCKASGYTFTNHYMHWVRQAPGQGLEWMGIINPISGSTSNAQKFQGRVTMTRDTSTSTVYMELSSLRSEDTAVYYCARDAVDAFDFWGQGTMVTVSSASTKGPSVFPLAPCSRSTSESTAALGCLVKDYFPEPVTVSWNSGALTSGVHTFPAVLQSSGLYSLSSVVTVPSSSLGTKTYTCNVDHKPSNTKVDKRVESKYGPPCPPCPAPEFEGGPSVFLFPPKPKDTLMISRTPEVTCVVVDVSQEDPEVQFNWYVDGVEVHNAKTKPREEQFNSTYRVVSVLTVLHQDWLNGKEYKCKVSNKGLPSSIEKTISKAKGQPREPQVYTLPPSQEEMTKNQVSLTCLVKGFYPSDIAVEWESNGQPENNYKTTPPVLDSDGSFFLYSKLTVDKSRWQEGNVFSCSVLHEALHSHYTQKSLSLSLGK
light: B1 light
As for B3, the FGF23 neutralizing activity IC50 (luciferase promoter assay) is 6.6 ng/mL.

B4: antibody I100H_G2_LS (antibody)
heavy: B1 heavy with I100H, N105D, Y248M, T250S, E252T, M424L, N430S
light: B1 light
B4: the FGF23 neutralizing activity IC50 (luciferase promoter assay) turned out to be 13 ng/mL.

B5: antibody D105N_IgG4PE_R409K_LS (antibody)
heavy: B3 heavy with A100I, D105N
light: B1 light
With B5, the FGF23 neutralizing activity IC50 (luciferase promoter assay) turned out to be 11.7 ng/mL.

B6: antibody I100Y_G2_LS (antibody)
heavy: B1 heavy with I100Y, N105D, Y248M, T250S, E252T, M424L, N430S
light: B1 light
For the molecule B6, the FGF23 neutralizing activity IC50 (luciferase promoter assay) was determined as 4.4 ng/mL.

B7: antibody I100A_G2_YTE (antibody)
heavy: B1 heavy with I100A, N105D
light: B1 light
With B7, the FGF23 neutralizing activity IC50 (luciferase promoter assay) came to 5 ng/mL.

B8: antibody I100H_IgG4PE_R409K_LS (antibody)
heavy: B3 heavy with A100H
light: B1 light
As to B8, the FGF23 neutralizing activity IC50 (luciferase promoter assay) worked out at 13.1 ng/mL.

B9: antibody I100H_G2_YTE (antibody)
heavy: B1 heavy with I100H, N105D
light: B1 light
For the molecule B9, the FGF23 neutralizing activity IC50 (luciferase promoter assay) worked out at 8.9 ng/mL.

B10: antibody I100A_G2_LS (antibody)
heavy: B1 heavy with I100A, N105D, Y248M, T250S, E252T, M424L, N430S
light: B1 light
In the case of B10, the FGF23 neutralizing activity IC50 (luciferase promoter assay) was found to be 2.4 ng/mL.

B11: antibody I100Y_IgG4PE_R409K_LS (antibody)
heavy: B3 heavy with A100Y
light: B1 light
As to B11, the FGF23 neutralizing activity IC50 (luciferase promoter assay) was 2.9 ng/mL.

B12: antibody I100Y_G2_YTE (antibody)
heavy: B1 heavy with I100Y, N105D
light: B1 light
On to B12, for which the FGF23 neutralizing activity IC50 (luciferase promoter assay) was determined as 2.9 ng/mL.
